Reference: patent publication US20230331827A1, “POTASSIUM CHANNEL INHIBITORS” (priority 2017, published 2023)

How the values were obtained:
human Kv1.1 (human) = human Kv1.1 (human) (UniProt Q09470); assay: cell-based or functional assay
human Kv1.3 (human) = human Kv1.3 (human) (UniProt P22001); assay: cell-based or functional assay
trypsin [1] = assay: TRF, 2.4 ug/mL Fab on trypsin
trypsin [2] = assay: TRF, 10 ug/mL Fab on trypsin
trypsin [3] = assay: TRF, 0.6 ug/mL Fab on trypsin
β-galactosidase = assay: phage TRF on β-galactosidase
β-galactosidase, sequence (P00722 2-1024): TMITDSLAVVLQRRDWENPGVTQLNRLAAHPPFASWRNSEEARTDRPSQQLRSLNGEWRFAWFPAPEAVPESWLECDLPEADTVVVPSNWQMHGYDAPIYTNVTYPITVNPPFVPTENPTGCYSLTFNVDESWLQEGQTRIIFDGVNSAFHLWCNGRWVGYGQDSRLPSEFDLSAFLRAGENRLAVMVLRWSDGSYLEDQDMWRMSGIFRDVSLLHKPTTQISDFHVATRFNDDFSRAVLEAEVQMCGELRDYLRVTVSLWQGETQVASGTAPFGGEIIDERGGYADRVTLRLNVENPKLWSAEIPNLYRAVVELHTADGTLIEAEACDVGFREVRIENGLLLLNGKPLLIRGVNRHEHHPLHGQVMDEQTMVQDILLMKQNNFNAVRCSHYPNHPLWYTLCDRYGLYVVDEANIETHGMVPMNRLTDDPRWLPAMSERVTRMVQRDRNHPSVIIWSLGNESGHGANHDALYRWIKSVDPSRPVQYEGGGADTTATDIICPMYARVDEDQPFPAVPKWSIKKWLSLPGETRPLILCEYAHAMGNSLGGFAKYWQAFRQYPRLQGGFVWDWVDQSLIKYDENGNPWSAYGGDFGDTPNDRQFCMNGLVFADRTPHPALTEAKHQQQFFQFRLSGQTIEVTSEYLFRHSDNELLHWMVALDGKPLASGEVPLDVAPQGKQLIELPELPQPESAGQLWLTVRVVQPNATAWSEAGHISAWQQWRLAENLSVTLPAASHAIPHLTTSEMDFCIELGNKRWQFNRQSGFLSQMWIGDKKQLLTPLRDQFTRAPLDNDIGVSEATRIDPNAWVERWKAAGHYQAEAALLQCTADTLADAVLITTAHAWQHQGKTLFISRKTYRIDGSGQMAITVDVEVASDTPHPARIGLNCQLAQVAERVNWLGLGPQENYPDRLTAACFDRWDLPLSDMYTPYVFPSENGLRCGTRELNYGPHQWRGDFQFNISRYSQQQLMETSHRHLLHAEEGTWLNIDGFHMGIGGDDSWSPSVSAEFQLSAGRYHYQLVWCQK

human Kv1.3 (human), sequence (P22001 whole entry): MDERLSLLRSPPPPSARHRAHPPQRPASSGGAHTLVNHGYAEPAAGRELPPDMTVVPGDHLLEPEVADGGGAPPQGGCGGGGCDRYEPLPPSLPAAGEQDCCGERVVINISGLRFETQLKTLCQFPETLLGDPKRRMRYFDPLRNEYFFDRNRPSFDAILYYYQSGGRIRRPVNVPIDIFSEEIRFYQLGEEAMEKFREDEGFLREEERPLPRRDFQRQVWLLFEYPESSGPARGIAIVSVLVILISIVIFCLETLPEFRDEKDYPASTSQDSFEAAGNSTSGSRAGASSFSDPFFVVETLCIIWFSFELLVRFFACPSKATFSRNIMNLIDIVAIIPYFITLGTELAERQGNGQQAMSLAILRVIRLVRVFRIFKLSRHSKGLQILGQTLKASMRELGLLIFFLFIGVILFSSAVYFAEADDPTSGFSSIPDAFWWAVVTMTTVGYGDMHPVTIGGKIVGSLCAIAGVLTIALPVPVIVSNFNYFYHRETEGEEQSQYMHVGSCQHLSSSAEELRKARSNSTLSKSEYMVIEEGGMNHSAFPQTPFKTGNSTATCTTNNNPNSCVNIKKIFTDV
human Kv1.1 (human), sequence (Q09470 whole entry): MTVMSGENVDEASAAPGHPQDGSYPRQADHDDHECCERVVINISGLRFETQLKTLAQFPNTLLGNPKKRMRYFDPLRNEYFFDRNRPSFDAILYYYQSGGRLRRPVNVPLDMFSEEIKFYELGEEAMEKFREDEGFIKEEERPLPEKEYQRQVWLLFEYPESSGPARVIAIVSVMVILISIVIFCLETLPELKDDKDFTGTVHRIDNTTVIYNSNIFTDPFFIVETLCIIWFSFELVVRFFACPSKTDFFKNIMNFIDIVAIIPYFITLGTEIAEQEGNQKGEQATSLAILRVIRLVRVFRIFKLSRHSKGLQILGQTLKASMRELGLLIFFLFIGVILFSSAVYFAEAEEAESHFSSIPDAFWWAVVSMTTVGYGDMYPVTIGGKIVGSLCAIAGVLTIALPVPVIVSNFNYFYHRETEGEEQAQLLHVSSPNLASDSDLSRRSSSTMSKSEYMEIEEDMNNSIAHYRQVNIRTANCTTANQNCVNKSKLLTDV

Binder | TRF signal (trypsin [1]) | TRF signal (trypsin [2]) | TRF signal (trypsin [3]) | TRF signal (β-galactosidase) | other results
KB_A12_HsTx1 R14A (antibody, V domains shown) VH: EVQLVESGGGLVRPGGSLRLSCAASGFTFSSYAMSWVRQAPGKGLEWVSAISGSGGSTYYADSVKGRFTISRDNTKNSLYLQMTSLRADDTAFYYCVKDFGPGYGTGWFDYWGPGTLVTVSS VL: NWYQQLPGKAPKLLIYAAGRASCRTPKDCADPCAKETGCPYGKCMNRKCKCNRCANSGVSDRFSAAKSGTSASLAINGLRSEDEADYYCAAWDDSLNGYVFGTGTKLTVLG | – | – | – | – | Kv1.1 IC50, QPatch patch clamp (human Kv1.1 (human)): 2.99 µM; Fold difference (Kv1.1 IC50 against Kv1.3 IC50) (human Kv1.3 (human)): > 3500 fold; Kv1.3 IC50, QPatch patch clamp (human Kv1.3 (human)): 900 pM
KB_A11 Fab (Fab, V domains shown) VH: EVQLVESGGGLVRPGGSLRLSCAASGFTFSSYAMSWVRQAPGKGLEWVSAISGSGGSTYYADSVKGRFTISRDNTKNSLYLQMTSLRADDTAFYYCVKDFGPGYGTGWFDYWGPGTLVTVSS VL: YLNWYQQKPGKAPKLLIYAAEICPRILMRCKQDSDCLAGCVCGPNGFCGPSSGIPARFSGSGYGTDFTLTINNIESEDAAYYFCLQHDNFPYTFGQGTKVEIKR | 141000 | 212000 | 48900 | – | –
KB_A12 Fab (Fab, V domains shown) VH: EVQLVESGGGLVRPGGSLRLSCAASGFTFSSYAMSWVRQAPGKGLEWVSAISGSGGSTYYADSVKGRFTISRDNTKNSLYLQMTSLRADDTAFYYCVDFGPGYGTGWFDYWGPGTLVTVSS VL: AVNWYQQLPGKAPKLLIYAAGRCPRILMRCKQDSDCLAGCVCGPNGFCGANSGVSDRFSAAKSGTSASLAINGLRSEDEADYYCAAWDDSLNGYVFGTGTKLTVLG | 222000 | 253000 | 102000 | – | –
KB_B01 Fab (Fab, V domains shown) VH: EVQLVESGGGLVRPGGSLRLSCAASGFTFSSYAMSWVRQAPGKGLEWVSAISGSGGSTYYADSVKGRFTISRDNTKNSLYLQMTSLRADDTAFYYCVKDFGPGYGTGWFDYWGPGTLVTVSS VL: AVNWYQQLPGKAPKLLIYAAAGCPRILMRCKQDSDCLAGCVCGPNGFCGTRSGVSDRFSGSKSGTSASLAISGLRSEDEADYYCAAWDDSLRAYVFGTGTKLTVLG | 153000 | 257000 | 54800 | – | –
KB_B02 Fab (Fab, V domains shown) VH: EVQLVESGGGLVRPGGSLRLSCAASGFTFSSYAMSWVRQAPGKGLEWVSAISGSGGSTYYADSVKGRFTISRDNTKNSLYLQMTSLRADDTAFYYCVKDFGPGYGTGWFDYWGPGTLVTVSS VL: AVNWYQQLPGKAPKLLIYAAVGCPRILMRCKQDSDCLAGCVCGPNGFCGTGSGIPERFSGSKSGNTASLTISGLQAEDEGDYYCAAWDDSLSGPVFGGGTKLTVLG | 15900 | 56600 | 2340 | – | –
KB_C07 Fab (Fab, V domains shown) VH: EVQLVESGGGLVRPGGSLRLSCAASGFTFSSYAMSWVRQAPGKGLEWVSAISGSGGSTYYADSVKGRFTISRDNTKNSLYLQMTSLRADDTAFYYCVKDFGPGYGTGWFDYWGPGTLVTVSS VL: AVNWYQQLPGKAPKLLIYAAVGCPRILMRCKQDSDCLAGCVCGPNGFCGSASGVSDRFSGSKSGTSASLAISGLRSEDEADYYCASWDDSLRGYVFGTGTKVTVLG | 247000 | 276000 | 153000 | – | –
KB_C08 Fab (Fab, V domains shown) VH: EVQLVESGGGLVRPGGSLRLSCAASGFTFSSYAMSWVRQAPGKGLEWVSAISGSGGSTYYADSVKGRFTISRDNTKNSLYLQMTSLRADDTAFYYCVKDFGPGYGTGWFDYWGPGTLVTVSS VL: AVNWYQQLPGKAPKLLIYAAAVCPRILMRCKQDSDCLAGCVCGPNGFCGTRSGIPERFSGSKSGTSAFLAISGLRSEDEADYYCAAWDDSLSGVVFGGGTKLTVLG | 131000 | 183000 | 51100 | – | –
KB_C09 Fab (Fab, V domains shown) VH: EVQLVESGGGLVRPGGSLRLSCAASGFTFSSYAMSWVRQAPGKGLEWVSAISGSGGSTYYADSVKGRFTISRDNTKNSLYLQMTSLRADDTAFYYCVKDFGPGYGTGWFDYWGPGTLVTVSS VL: AVNWYQQLPGKAPKLLIYAAGRCPRILMRCKQDSDCLAGCVCGPNGFCGGGSGVPDRFSGSIDSSSNSASLTISGLRAEDEADYYCQSYDSSNHWVFGGGTKLTVLG | 205000 | 289000 | 46800 | – | –
KB_C10 Fab (Fab, V domains shown) VH: EVQLVESGGGLVRPGGSLRLSCAASGFTFSSYAMSWVRQAPGKGLEWVSAISGSGGSTYYADSVKGRFTISRDNTKNSLYLQMTSLRADDTAFYYCVKDFGPGYGTGWFDYWGPGTLVTVSS VL: AVNWYQQLPGKAPKLLIYAAGPCPRILMRCKQDSDCLAGCVCGPNGFCGADSGVSDRFSGSKSGTSASLAITGLQAEDEGDYYCAAWDDSLNGLVFGGGTKVTVLG | 146000 | 238000 | 41700 | – | –
KB_A12_B-gal_F02 (scFv, V domains shown) VH: EVQLVESGGGLVRPGGSLRLSCAASGFTFSSYAMSWVRQAPGKGLEWVSAISGSGGSTYYADSVKGRFTISRDNTKNSLYLQMTSLRADDTAFYYCVKDFGPGYGTGWFDYWGPGTLVTVSS VL: AVNWYQQLPGKAPKLLIYAAGRCRTTSTIRRRCKQDSDCLAGCVCGPNGFCGANSGVSDRFSAAKSGTSASLAINGLRSEDEADYYCAAWDDSLNGYVFGTGTKLTVLG | – | – | – | 476000 | –
KB_A12_B-gal_G05 (scFv, V domains shown) VH: EVQLVESGGGLVRPGGSLRLSCAASGFTFSSYAMSWVRQAPGKGLEWVSAISGSGGSTYYADSVKGRFTISRDNTKNSLYLQMTSLRADDTAFYYCVKDFGPGYGTGWFDYWGPGTLVTVSS VL: AVNWYQQLPGKAPKLLIYAAGRCLDTVNLRRRCKQDSDCLAGCVCGPNGFCGANSGVSDRFSAAKSGTSASLAINGLRSEDEADYYCAAWDDSLNGYVFGTGTKLTVLG | – | – | – | 529000 | –
KB_A12_B-gal_H03 (scFv, V domains shown) VH: EVQLVESGGGLVRPGGSLRLSCAASGFTFSSYAMSWVRQAPGKGLEWVSAISGSGGSTYYADSVKGRFTISRDNTKNSLYLQMTSLRADDTAFYYCVKDFGPGYGTGWFDYWGPGTLVTVSS VL: AVNWYQQLPGKAPKLLIYAAGRCNQTMSIRRPCKQDSDCLAGCVCGPNGFCGANSGVSDRFSAAKSGTSASLAINGLRSEDEADYYCAAWDDSLNGYVFGTGTKLTVLG | – | – | – | 518000 | –
KB_A12_B-gal_E04 (scFv, V domains shown) VH: EVQLVESGGGLVRPGGSLRLSCAASGFTFSSYAMSWVRQAPGKGLEWVSAISGSGGSTYYADSVKGRFTISRDNTKNSLYLQMTSLRADDTAFYYCVKDFGPGYGTGWFDYWGPGTLVTVSS VL: AVNWYQQLPGKAPKLLIYAAGRCLATTSIRRPCKQDSDCLAGCVCGPNGFCGANSGVSDRFSAAKSGTSASLAINGLRSEDEADYYCAAWDDSLNGYVFGTGTKLTVLG | – | – | – | 523000 | –
KB_A12_B-gal_E05 (scFv, V domains shown) VH: EVQLVESGGGLVRPGGSLRLSCAASGFTFSSYAMSWVRQAPGKGLEWVSAISGSGGSTYYADSVKGRFTISRDNTKNSLYLQMTSLRADDTAFYYCVKDFGPGYGTGWFDYWGPGTLVTVSS VL: AVNWYQQLPGKAPKLLIYAAGRCRETSSLRRPCKQDSDCLAGCVCGPNGFCGANSGVSDRFSAAKSGTSASLAINGLRSEDEADYYCAAWDDSLNGYVFGTGTKLTVLG | – | – | – | 312000 | –
KB_A12_B-gal_F09 (scFv, V domains shown) VH: EVQLVESGGGLVRPGGSLRLSCAASGFTFSSYAMSWVRQAPGKGLEWVSAISGSGGSTYYADSVKGRFTISRDNTKNSLYLQMTSLRADDTAFYYCVKDFGPGYGTGWFDYWGPGTLVTVSS VL: AVNWYQQLPGKAPKLLIYAAGRCIATSHIRRHCKQDSDCLAGCVCGPNGFCGANSGVSDRFSAAKSGTSASLAINGLRSEDEADYYCAAWDDSLNGYVFGTGTKLTVLG | – | – | – | 258000 | –
KB_A12_B-gal_F11 (scFv, V domains shown) VH: EVQLVESGGGLVRPGGSLRLSCAASGFTFSSYAMSWVRQAPGKGLEWVSAISGSGGSTYYADSVKGRFTISRDNTKNSLYLQMTSLRADDTAFYYCVKDFGPGYGTGWFDYWGPGTLVTVSS VL: AVNWYQQLPGKAPKLLIYAAGRCHETAQIRRRCKQDSDCLAGCVCGPNGFCGANSGVSDRFSAAKSGTSASLAINGLRSEDEADYYCAAWDDSLNGYVFGTGTKLTVLG | – | – | – | 531000 | –
KB_A12_B-gal_H07 (scFv, V domains shown) VH: EVQLVESGGGLVRPGGSLRLSCAASGFTFSSYAMSWVRQAPGKGLEWVSAISGSGGSTYYADSVKGRFTISRDNTKNSLYLQMTSLRADDTAFYYCVKDFGPGYGTGWFDYWGPGTLVTVSS VL: AVNWYQQLPGKAPKLLIYAAGRCTQTALIRRRCKQDSDCLAGCVCGPNGFCGANSGVSDRFSAAKSGTSASLAINGLRSEDEADYYCAAWDDSLNGYVFGTGTKLTVLG | – | – | – | 62000 | –
KB_A12_B-gal_H02 (scFv, V domains shown) VH: EVQLVESGGGLVRPGGSLRLSCAASGFTFSSYAMSWVRQAPGKGLEWVSAISGSGGSTYYADSVKGRFTISRDNTKNSLYLQMTSLRADDTAFYYCVKDFGPGYGTGWFDYWGPGTLVTVSS VL: AVNWYQQLPGKAPKLLIYAAGRCEQTSVIRRHCKQDSDCLAGCVCGPNGFCGANSGVSDRFSAAKSGTSASLAINGLRSEDEADYYCAAWDDSLNGYVFGTGTKLTVLG | – | – | – | 501000 | –
KB_A12_B-gal_F03 (scFv, V domains shown) VH: EVQLVESGGGLVRPGGSLRLSCAASGFTFSSYAMSWVRQAPGKGLEWVSAISGSGGSTYYADSVKGRFTISRDNTKNSLYLQMTSLRADDTAFYYCVKDFGPGYGTGWFDYWGPGTLVTVSS VL: AVNWYQQLPGKAPKLLIYAAGRCLATTSIRRHCKQDSDCLAGCVCGPNGFCGANSGVSDRFSAAKSGTSASLAINGLRSEDEADYYCAAWDDSLNGYVFGTGTKLTVLG | – | – | – | 289000 | –
KB_A12_B-gal_F07 (scFv, V domains shown) VH: EVQLVESGGGLVRPGGSLRLSCAASGFTFSSYAMSWVRQAPGKGLEWVSAISGSGGSTYYADSVKGRFTISRDNTKNSLYLQMTSLRADDTAFYYCVKDFGPGYGTGWFDYWGPGTLVTVSS VL: AVNWYQQLPGKAPKLLIYAAGRCRTTANVRRHCKQDSDCLAGCVCGPNGFCGANSGVSDRFSAAKSGTSASLAINGLRSEDEADYYCAAWDDSLNGYVFGTGTKLTVLG | – | – | – | 246000 | –
